According to doi:10.1101/2021.07.05.451109 (bioRxiv, 2021):

Assays:
[1] = biological target: NLuc/CXCR4 (genome-edited, HEK293 cells) (human (endogenous in HEK293), UniProt P61073 1-352); experiment: FRET or BRET
[2] = biological target: NLuc/CXCR4 (genome-edited, HeLa cells) (human (endogenous in HeLa), UniProt P61073 1-352); experiment: FRET or BRET
Chain of NLuc/CXCR4 (genome-edited, HeLa cells) (P61073 whole entry): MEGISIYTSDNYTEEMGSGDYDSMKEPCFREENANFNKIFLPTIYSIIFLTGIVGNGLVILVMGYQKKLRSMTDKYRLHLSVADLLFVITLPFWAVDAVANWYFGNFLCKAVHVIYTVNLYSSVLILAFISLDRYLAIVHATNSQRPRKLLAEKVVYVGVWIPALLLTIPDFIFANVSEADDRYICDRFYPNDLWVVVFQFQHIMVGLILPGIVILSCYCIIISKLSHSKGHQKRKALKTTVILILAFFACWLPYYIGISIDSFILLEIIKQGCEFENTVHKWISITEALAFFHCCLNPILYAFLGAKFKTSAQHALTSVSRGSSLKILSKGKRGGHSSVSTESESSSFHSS

Chain of NLuc/CXCR4 (genome-edited, HEK293 cells) (P61073 whole entry): as above

B1: 24Leu-CXCL17 (ligand)
chain: LNPGVARGHRDRGQASRRWLQEGGQECECKDWFLRAPRRKFMTVSGLPKKQCPCDHFKGNVKKTRHQRHHRKPNKHSRACQQFLKQCQLRSFALPL
Work on B1 yielded a pKi [1] of 6.14 ± 0.3 and a pKi [2] of 6.15 ± 0.27.
